# Assay results reported in patent publication US20140308291A1 (INTEGRATED BIOTHERAPEUTICS, published 2014).
# T1: wild-type gamma hemolysin B subunit (HlgB) (Staphylococcus aureus, UniProt Q2FVK1 27-325)
# T1 construct: also called Gamma B; gamma hemolysin component B
# T1 sequence: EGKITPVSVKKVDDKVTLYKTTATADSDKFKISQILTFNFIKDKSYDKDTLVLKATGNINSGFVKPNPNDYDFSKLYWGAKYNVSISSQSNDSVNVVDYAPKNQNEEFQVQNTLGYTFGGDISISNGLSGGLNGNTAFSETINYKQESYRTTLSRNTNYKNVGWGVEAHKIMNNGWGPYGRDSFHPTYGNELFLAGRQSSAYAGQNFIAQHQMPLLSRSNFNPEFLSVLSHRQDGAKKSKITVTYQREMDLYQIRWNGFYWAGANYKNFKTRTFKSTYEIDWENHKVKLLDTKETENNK
# B1: LukS-PV triple mutant T28F/K97A/S209A (Mut9) (other)
# chain: HHHHHHDNNIENIGDGAEVVKRTEDTSSDKWGVFQNIQFDFVKDKKYNKDALILKMQGFINSKTTYYNYKNTDHIKAMRWPFQYNIGLKTNDPNVDLINYLPANKIDSVNVSQTLGYNIGGNFNSGPSTGGNGSFNYSKTISYNQQNYISEVEHQNSKSVQWGIKANSFITSLGKMSGHDPNLFVGYKPYSQNPRDYFVPDNELPPLVHSGFNPAFIATVSHEKGSGDTSEFEITYGRNMDVTHATRRTTHYGNSYLEGSRIHNAFVNRNYTVKYEVNWKTHEIKVKGHN
# Biological target: T1, wild-type gamma hemolysin B subunit …
# Assay: MPD-based oligomerization assay (40% MPD, 24 hours), SDS-PAGE without boiling
binder,measurement,value
B1,binding result,no binding
